In patent US20260103532A1 (published 2026):

Molecular target: CD40 (UniProt P25942 21-193, limits assumed)
Assay: not stated (affinity given in the study drug description; no method)

Sequence of CD40 (P25942 21-193 limits assumed): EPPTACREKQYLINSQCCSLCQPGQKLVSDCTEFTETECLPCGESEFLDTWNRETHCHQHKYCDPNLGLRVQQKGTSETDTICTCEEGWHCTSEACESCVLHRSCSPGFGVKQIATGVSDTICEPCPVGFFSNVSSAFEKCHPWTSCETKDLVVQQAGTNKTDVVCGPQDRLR

Kd: 7.2 nM
B1: KPL-404 (antibody, human IgG4 S228P, kappa, V domains shown)
VH: QVQLVQSGAEVKKPGASVKVSCKASGYTFTNYWMHWVRQAPGQRLEWIGYINPSNDYTKYNQKFKDRATLTADKSANTAYMELSSLRSEDTAVYYCARQGFPYWGQGTLVTVSS
VL: EIVLTQSPATLSLSPGERATLSCSASSSVSYMHWYQQKPGQAPRRWIYDTSKLASGVPARFSGSGSGTDYTLTISSLEPEDFAVYYCHQLSSDPFTFGGGTKVEIKR
notes: also called humanized anti-CD40 antibody; KPL-404 drug product
